Reference: publication PMC3084833

Tests used:
[1] = biological target: ΔCT-PxxP bestrophin-1 (human bestrophin-1 lacking the C-terminal proline-rich region between 462 and 575) (human) (UniProt O76090); experiment: co-IP; HEK-293 cells co-transfected with wild-type or ΔCTPxxP bestrophin-1 and β3- or His-tagged β4-subunits; IP with anti-bestrophin-1 antibody, blot anti-β3, or IP with anti-His antibody, blot anti-bestrophin-1; relative co-precipitation efficiency by densitometry of lysate, precipitate and non-bound fraction
[2] = biological target: calcium channel, voltage-dependent, β4-subunit, His6-tagged (rat, β4-pCDNA3) (Rattus norvegicus) (UniProt D4A055); experiment: as above

Substance | co-precipitation efficiency [1] | co-precipitation efficiency [2]
calcium channel, voltage-dependent, β3-subunit (rat, untagged, β3-pCMV) (from UniProt P54287 1-484) (natural protein) | 4% | –
ΔCT-PxxP bestrophin-1 (human bestrophin-1 lacking the C-terminal proline-rich region between 462 and 575) (from UniProt O76090-1 1-585) (natural protein) | – | 4%
